What is called Kd is the concentration at which binding is half-saturated.

The values that follow come from PMC509406.

Test [1] addresses rabbit actin (Cytoskeleton, catalog #AKL95) (rabbit) (UniProt P68135).
For test [2], the target named is emerin (Homo sapiens) (UniProt P50402). The following applies: cited from earlier work.
Test [3] concerns the target rabbit actin (Cytoskeleton, catalog #AKL95) (rabbit) (UniProt P68135). The source holds these as a separate data set.
Test [4] concerns the target F-actin (Oryctolagus cuniculus) (UniProt P68135). The following applies: cited from earlier work.

Sequence of tropomodulin (P28289 whole entry): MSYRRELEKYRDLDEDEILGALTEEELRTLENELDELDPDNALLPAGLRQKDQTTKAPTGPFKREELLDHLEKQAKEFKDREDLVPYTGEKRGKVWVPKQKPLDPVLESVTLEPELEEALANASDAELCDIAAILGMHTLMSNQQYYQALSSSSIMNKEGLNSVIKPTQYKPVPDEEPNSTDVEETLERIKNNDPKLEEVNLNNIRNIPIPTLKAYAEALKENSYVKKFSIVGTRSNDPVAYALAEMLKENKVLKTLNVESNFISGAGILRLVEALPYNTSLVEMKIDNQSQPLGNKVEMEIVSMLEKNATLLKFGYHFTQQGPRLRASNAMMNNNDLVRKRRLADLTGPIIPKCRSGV
Sequence of LAP2β (P42167 whole entry): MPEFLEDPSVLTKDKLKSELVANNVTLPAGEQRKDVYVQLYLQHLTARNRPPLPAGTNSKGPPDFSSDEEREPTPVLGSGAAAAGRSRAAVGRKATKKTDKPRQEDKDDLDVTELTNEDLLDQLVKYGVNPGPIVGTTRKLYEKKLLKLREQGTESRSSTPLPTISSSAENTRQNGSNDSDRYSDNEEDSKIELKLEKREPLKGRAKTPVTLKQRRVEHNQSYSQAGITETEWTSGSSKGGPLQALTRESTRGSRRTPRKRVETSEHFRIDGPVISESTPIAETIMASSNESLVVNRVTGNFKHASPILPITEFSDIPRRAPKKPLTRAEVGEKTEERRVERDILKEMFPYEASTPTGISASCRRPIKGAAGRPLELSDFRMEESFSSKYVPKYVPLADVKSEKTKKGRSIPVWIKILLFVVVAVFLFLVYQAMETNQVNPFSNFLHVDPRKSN
Sequence of emerin (Homo sapiens) (P50402 whole entry): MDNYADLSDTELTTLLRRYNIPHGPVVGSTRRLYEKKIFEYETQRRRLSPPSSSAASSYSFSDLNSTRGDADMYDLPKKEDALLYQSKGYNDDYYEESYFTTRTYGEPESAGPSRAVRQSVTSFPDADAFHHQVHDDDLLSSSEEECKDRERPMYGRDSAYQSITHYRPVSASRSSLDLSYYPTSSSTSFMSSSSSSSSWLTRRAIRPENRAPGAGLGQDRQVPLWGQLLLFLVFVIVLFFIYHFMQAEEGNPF

In turn, “LAP2β (from UniProt P42167 1-454) (natural protein)” had an actin polymerization assays (data not shown), activity against emerin (fold less active than emerin) in test [1] of 20.

As to nesprin-1α (from UniProt Q8NF91), the Kd in test [2] is 4 nM.

In test [3], “tropomodulin (from UniProt P28289 1-359) (natural protein)” showed a length of green (pointed-end growth) segments on rhodamine–phalloidin filaments capped with capping protein, 1 μM tropomodulin of 0.09 μm and a length of growing (green) segments on filaments formed from gelsolin–actin seeds, 1 μM tropomodulin of 0.1 μm.

As to tropomodulin (from UniProt P28289), the Kd in test [4] is 110 nM.
